{"source": "patent US20250283871A1", "about": "“COMPOSITIONS AND METHODS FOR MODULATING THE INTERACTION BETWEEN SS18-SSX FUSION ONCOPROTEIN AND NUCLEOSOMES” (Dana-Farber Cancer Institute, Inc., priority 2020, published 2025)", "key": {"[1]": {"molecular_target": "UBC_HUMAN Polyubiquitin-C (human) (UniProt P0CG48)", "test": "anti-SMARCA4 (BRG1) IP, mass spectrometry, Aska-SS cells"}, "[2]": {"molecular_target": "VIME_HUMAN Vimentin (human) (UniProt P08670)", "test": "anti-SMARCA4 (BRG1) IP, mass spectrometry, Aska-SS cells"}, "[3]": {"molecular_target": "ZN326_HUMAN DBIRD complex subunit ZNF326 (human) (UniProt Q5BKZ1)", "test": "anti-SMARCA4 (BRG1) IP, mass spectrometry, Aska-SS cells"}, "[4]": {"molecular_target": "QCR2_HUMAN Cytochrome b-c1 complex subunit 2, mitochondrial (human) (UniProt P22695)", "test": "anti-SMARCA4 (BRG1) IP, mass spectrometry, Aska-SS cells"}, "[5]": {"molecular_target": "TNR6B_HUMAN Trinucleotide repeat-containing gene 6B protein (human) (UniProt Q9UPQ9)", "test": "anti-SMARCA4 (BRG1) IP, mass spectrometry, Aska-SS cells"}, "[6]": {"molecular_target": "TRA2B_HUMAN Transformer-2 protein homolog beta (human) (UniProt P62995)", "test": "anti-SMARCA4 (BRG1) IP, mass spectrometry, Aska-SS cells"}, "[7]": {"molecular_target": "XRN2_HUMAN 5'-3' exoribonuclease 2 (human) (UniProt Q9H0D6)", "test": "anti-SMARCA4 (BRG1) IP, mass spectrometry, Aska-SS cells"}, "[8]": {"molecular_target": "ZC11A_HUMAN Zinc finger CCCH domain-containing protein 11A (human) (UniProt O75152)", "test": "anti-SMARCA4 (BRG1) IP, mass spectrometry, Aska-SS cells"}, "[9]": {"molecular_target": "TSP1_HUMAN Thrombospondin-1 (human) (UniProt P07996)", "test": "anti-SMARCA4 (BRG1) IP, mass spectrometry, Aska-SS cells"}, "[10]": {"molecular_target": "UBP2L_HUMAN Isoform 5 of Ubiquitin-associated protein 2-like (human) (UniProt Q14157)", "test": "anti-SMARCA4 (BRG1) IP, mass spectrometry, human fibroblasts"}, "[11]": {"molecular_target": "UBC_HUMAN Polyubiquitin-C (human) (UniProt P0CG48)", "test": "anti-SMARCA4 (BRG1) IP, mass spectrometry, human fibroblasts"}, "[12]": {"molecular_target": "VIME_HUMAN Vimentin (human) (UniProt P08670)", "test": "anti-SMARCA4 (BRG1) IP, mass spectrometry, human fibroblasts"}, "[13]": {"molecular_target": "ZN326_HUMAN DBIRD complex subunit ZNF326 (human) (UniProt Q5BKZ1)", "test": "anti-SMARCA4 (BRG1) IP, mass spectrometry, human fibroblasts"}, "[14]": {"molecular_target": "QCR2_HUMAN Cytochrome b-c1 complex subunit 2, mitochondrial (human) (UniProt P22695)", "test": "anti-SMARCA4 (BRG1) IP, mass spectrometry, human fibroblasts"}, "[15]": {"molecular_target": "URB2_HUMAN Unhealthy ribosome biogenesis protein 2 homolog (human) (UniProt Q14146)", "test": "anti-SMARCA4 (BRG1) IP, mass spectrometry, human fibroblasts"}, "[16]": {"molecular_target": "TNR6B_HUMAN Trinucleotide repeat-containing gene 6B protein (human) (UniProt Q9UPQ9)", "test": "anti-SMARCA4 (BRG1) IP, mass spectrometry, human fibroblasts"}, "[17]": {"molecular_target": "TRA2B_HUMAN Transformer-2 protein homolog beta (human) (UniProt P62995)", "test": "anti-SMARCA4 (BRG1) IP, mass spectrometry, human fibroblasts"}, "[18]": {"molecular_target": "YLPM1_HUMAN Isoform 4 of YLP motif-containing protein 1 (human) (UniProt P49750)", "test": "anti-SMARCA4 (BRG1) IP, mass spectrometry, human fibroblasts"}, "[19]": {"molecular_target": "XRN2_HUMAN 5'-3' exoribonuclease 2 (human) (UniProt Q9H0D6)", "test": "anti-SMARCA4 (BRG1) IP, mass spectrometry, human fibroblasts"}, "[20]": {"molecular_target": "UCRIL HUMAN Putative cytochrome b-c1 complex subunit Rieske-like protein 1 (human) (UniProt P0C7P4)", "test": "anti-SMARCA4 (BRG1) IP, mass spectrometry, human fibroblasts"}, "[21]": {"molecular_target": "ZC11A_HUMAN Zinc finger CCCH domain-containing protein 11A (human) (UniProt O75152)", "test": "anti-SMARCA4 (BRG1) IP, mass spectrometry, human fibroblasts"}, "[22]": {"molecular_target": "SMRD1_HUMAN SWI/SNF-related matrix-associated actin-dependent regulator of chromatin subfamily D member 1 (human) (UniProt Q96GM5)", "test": "MS of BAF complexes from Aska-SS cells, shControl against shSS18-SSX, Rep 2"}, "SSX1; SSX8 (human)": {"molecular_target": "SSX1; SSX8 (human) (UniProt Q16384)", "test": "MS of BAF complexes from Aska-SS cells, shControl against shSS18-SSX, Rep 2"}, "[23]": {"molecular_target": "ARI1B_HUMAN Isoform 3 of AT-rich interactive domain-containing protein 1B (human) (UniProt Q8NFD5)", "test": "MS of BAF complexes from Aska-SS cells, shControl against shSS18-SSX, Rep 2"}, "[24]": {"molecular_target": "SMRC1_HUMAN SWI/SNF complex subunit SMARCC1 (human) (UniProt Q92922)", "test": "MS of BAF complexes from Aska-SS cells, shControl against shSS18-SSX, Rep 2"}, "[25]": {"molecular_target": "SNF5_HUMAN Isoform B of SWI/SNF-related matrix-associated actin-dependent regulator of chromatin subfamily B member 1 (human) (UniProt Q12824)", "test": "MS of BAF complexes from Aska-SS cells, shControl against shSS18-SSX, Rep 2"}, "BCL7B (human)": {"molecular_target": "BCL7B (human) (UniProt Q9BQE9)", "test": "MS of BAF complexes from Aska-SS cells, shControl against shSS18-SSX, Rep 2"}, "[26]": {"molecular_target": "ACL6A_HUMAN Actin-like protein 6A (human) (UniProt O96019)", "test": "MS of BAF complexes from Aska-SS cells, shControl against shSS18-SSX, Rep 2"}, "[27]": {"molecular_target": "BCL7C_HUMAN Isoform 2 of B-cell CLL/lymphoma 7 protein family member C (human) (UniProt Q8WUZ0)", "test": "MS of BAF complexes from Aska-SS cells, shControl against shSS18-SSX, Rep 2"}, "[28]": {"molecular_target": "SMCE1_HUMAN SWI/SNF-related matrix-associated actin-dependent regulator of chromatin subfamily E member 1 (human) (UniProt Q969G3)", "test": "MS of BAF complexes from Aska-SS cells, shControl against shSS18-SSX, Rep 2"}, "[29]": {"molecular_target": "SSXT_HUMAN Protein SSXT (human) (UniProt Q15532)", "test": "MS of BAF complexes from Aska-SS cells, shControl against shSS18-SSX, Rep 2"}}, "data": [{"substance": "SMCA4_HUMAN Transcription activator BRG1 (from UniProt P51532 1-1647) (enzyme)", "values": [{"measurement": "NSAF", "setting": "[1]", "value": 0}, {"measurement": "NSAF", "setting": "[2]", "value": 0}, {"measurement": "NSAF", "setting": "[3]", "value": 0}, {"measurement": "NSAF", "setting": "[4]", "value": 0}, {"measurement": "NSAF", "setting": "[5]", "value": 0}, {"measurement": "NSAF", "setting": "[6]", "value": 0}, {"measurement": "NSAF", "setting": "[7]", "value": 0}, {"measurement": "NSAF", "setting": "[8]", "value": 0}, {"measurement": "NSAF", "setting": "[9]", "value": 0}, {"measurement": "NSAF", "setting": "[10]", "value": "5.74e-05"}, {"measurement": "NSAF", "setting": "[11]", "value": "9.25e-05"}, {"measurement": "NSAF", "setting": "[12]", "value": 0.000136}, {"measurement": "NSAF", "setting": "[13]", "value": 0}, {"measurement": "NSAF", "setting": "[14]", "value": 0.00014}, {"measurement": "NSAF", "setting": "[15]", "value": 0}, {"measurement": "NSAF", "setting": "[16]", "value": "6.92e-05"}, {"measurement": "NSAF", "setting": "[17]", "value": 0.00022}, {"measurement": "NSAF", "setting": "[18]", "value": 0.000266}, {"measurement": "NSAF", "setting": "[19]", "value": 0}, {"measurement": "NSAF", "setting": "[20]", "value": 0.000224}, {"measurement": "NSAF", "setting": "[21]", "value": 0}, {"measurement": "LFQ intensity ratio Aska (shControl)/Aska (shSS18-SSX), norm to SMARCA4", "setting": "[22]", "value": 0.95}, {"measurement": "LFQ intensity ratio Aska (shControl)/Aska (shSS18-SSX), norm to SMARCA4", "setting": "SSX1; SSX8 (human)", "value": 66.8}, {"measurement": "LFQ intensity ratio Aska (shControl)/Aska (shSS18-SSX), norm to SMARCA4", "setting": "[23]", "value": 0.65}, {"measurement": "LFQ intensity ratio Aska (shControl)/Aska (shSS18-SSX), norm to SMARCA4", "setting": "[24]", "value": 0.622}, {"measurement": "LFQ intensity ratio Aska (shControl)/Aska (shSS18-SSX), norm to SMARCA4", "setting": "[25]", "value": 0.0637}, {"measurement": "LFQ intensity ratio Aska (shControl)/Aska (shSS18-SSX), norm to SMARCA4", "setting": "BCL7B (human)", "value": 1.13}, {"measurement": "LFQ intensity ratio Aska (shControl)/Aska (shSS18-SSX), norm to SMARCA4", "setting": "[26]", "value": 1.1}, {"measurement": "LFQ intensity ratio Aska (shControl)/Aska (shSS18-SSX), norm to SMARCA4", "setting": "[27]", "value": 1.54}, {"measurement": "LFQ intensity ratio Aska (shControl)/Aska (shSS18-SSX), norm to SMARCA4", "setting": "[28]", "value": 0.855}, {"measurement": "LFQ intensity ratio Aska (shControl)/Aska (shSS18-SSX), norm to SMARCA4", "setting": "[29]", "value": 1.26}]}]}
